Results as given in article PMC5992339, “The Structure of an Infectious Human Polyomavirus and Its Interactions with Cellular Receptors” (Structure(London, England:1993), 2018).

Target: the molecule itself
Assay: cryo-EM structure; purified native BKV virions (0.25 mg/ml) adsorbed on carbon-coated lacey grids in buffer A without Triton X-100; icosahedral reconstructions: unliganded 3.8 A, with 20 mM GT1b oligosaccharide 3.4 A, with heparin 10 mg/ml 3.6 A, with 5 mM DTT (reduced) 6.5 A

B1: BK polyomavirus major capsid protein VP1 (natural protein)
chain: MAPTKRKGECPGAAPKKPKEPVQVPKLLIKGGVEVLEVKTGVDAITEVECFLNPEMGDPDENLRGFSLKLSAENDFSSDSPERKMLPCYSTARIPLPNLNEDLTCGNLLMWEAVTVQTEVIGITSMLNLHAGSQKVHEHGGGKPIQGSNFHFFAVGGEPLEMQGVLMNYRSKYPDGTITPKNPTAQSQVMNTDHKAYLDKNNAYPVECWVPDPSRNENARYFGTFTGGENVPPVLHVTNTATTVLLDEQGVGPLCKADSLYVSAADICGLFTNSSGTQQWRGLARYFKIRLRKRSVKNPYPISFLLSDLINRRTQRVDGQPMYGMESQVEEVRVFDGTERLPGDPDMIRYIDKQGQLQTKML
notes: Major capsid protein VP1 of BK polyomavirus, Dunlop strain, as it stands in the native virion made from the genome of plasmid pGEM7-Dunlop; the model is built up to Lys359 in chain 6, and the first 13 residues of chain 2 are not resolved; Protein of the native virion, with no tags and no truncation; The capsid is built from 72 pentons of VP1 (T = 7d); also called BKV VP1; chains 1-6 (the six …)
- binding result: binds
